Publication PMC10952558, “Domain shuffling of a highly mutable ligand‐binding fold drives adhesin generation across the bacterial kingdom” (Proteins, 2023)
Where two headings read alike, the source gives them in different places.

Assays:
[1] = target: cellular fibronectin (human); test: MST; RED-NHS labeled cFn at 50 nM mixed with 16 concentrations (92 pM-3 uM) of the unlabeled protein; 637 mM NaCl, 2.7 mM KCl, 10 mM Na2HPO4, 1.8 mM KH2PO4, pH 7.4; 22-23°C; Monolith NT.115, MST power 40%, excitation 20%; triplicate; single-site dose-response model
[2] = target: cellular fibronectin (human); test: as above; remark: listed apart in the source
[3] = target: the molecule itself; test: crystal structure; dimeric SEC fraction of C-terminally His-tagged CshB_NR2; sitting drop, 20°C, 0.1 M SPG buffer pH 5, 25% w/v PEG 1500; molecular replacement with 5L2D; 1.4 Å

Molecule: CshB_NR2 (NR2 domain of CshB), N-terminally hexa-histidine-tagged variant (from UniProt A8AXC5 211-528) (domain or fragment)
- Kd [1]: 530 nM

B1: CshA_NR2 (NR2 domain of cell surface hydrophobicity protein A), wild type (domain or fragment)
chain: WVDFSDTASMKNLDPQGGFKVGTVFKKEISPGYVVTLTVTELKPFNSTEIYKKRVEGTPTANTYDPNAINSYLKGYKDYGKTPPSVTGRPQNKFSTIGGQGFDTQGRKTQIILPDDAVNWGIKFKVEATYRGNPVKPSVVMADGEDANPAEYGIFTTNGEGWEYVGEWMKGPRAKGPYTVMTEDMVKAFDKTRKDGLLILKDKSVDWSKYLSPDTVTGGLGSQVFGPIISASKAVPVVMTRGASEVGFYVATGGQQALMMGFLVVDSSDAPASYGEAYHTIGTRDSIANTPINQPYLGSTAADIDADSESDWTADDRE
- Kd [2]: 302 nM

B2: CshB_NR2 (NR2 domain of CshB), C-terminally hexa-histidine-tagged variant, dimeric form (domain or fragment)
chain: WLDFSDSASWKNLDQRGGLKVGTTFTKEISPGYVVTLTVKELKPFNSTEIYKKRVAGTATEGTYNPDAENGFLTSAPYYGKTPPPSVTGAAQNEWTTIRDQGFNTQKRKTQLVYPMNSTNWGVKFDIEATYLGKRVAPTVVMADGEDANPGEFAIFTTNGTGWEYMGEWKMKSPAKEAYTVITKKMLDDEDVKRRGLLILKDKSVDWYKYLSPDTVTGGLGSQVFGPNRSNERTVPVVMTRGASEVGFYVASSGQQAMMMGFLVVDVSDAPESYGEAFHTISTRDSVTNDPINQPYLGTTPADIDVESSNDWVLDDKK
notes: CshB, Streptococcus gordonii DL1, NR2 domain, residues 211-528 of the full-length CshB polypeptide; amplified from chromosomal DNA, in pOPINE; Used for crystallization; Only the dimeric SEC fraction crystallised
- stoichiometry N [3]: 2
